# Laboratory results: patent US20050191294A1 (University of Texas, published 2005)
# B1: WDLAWMFRLPVG (SEQ ID NO:7)-phage (peptide)
# peptide: WDLAWMFRLPVG
# notes: whole phage particles stood in the assay; also called GRP78-targeting phage clone; not shown: pIII coat protein of fd-based phage (fUSE5 vector)
# B2: CGRRAGGSC (SEQ ID NO:1)-displaying phage (peptide, not shown: large carriers)
# peptide: CGRRAGGSC
# notes: whole phage particles stood in the assay; also called IL-11-mimic phage; IL-11 mimic phage
# B3: WIFPWIQL (SEQ ID NO:6)-phage (peptide)
# peptide: WIFPWIQL
# notes: as for B1
# Key:
# [1] = target: T1, recombinant GRP78 (Stressgen); experiment: phage binding to GRP78 immobilized on microtiter wells, 10^9 TU, bound TU counted
# T1 construct: Bought protein; also called Glucose-regulated protein-78; immobilized GRP78
# T1 sequence (P07823 19-654): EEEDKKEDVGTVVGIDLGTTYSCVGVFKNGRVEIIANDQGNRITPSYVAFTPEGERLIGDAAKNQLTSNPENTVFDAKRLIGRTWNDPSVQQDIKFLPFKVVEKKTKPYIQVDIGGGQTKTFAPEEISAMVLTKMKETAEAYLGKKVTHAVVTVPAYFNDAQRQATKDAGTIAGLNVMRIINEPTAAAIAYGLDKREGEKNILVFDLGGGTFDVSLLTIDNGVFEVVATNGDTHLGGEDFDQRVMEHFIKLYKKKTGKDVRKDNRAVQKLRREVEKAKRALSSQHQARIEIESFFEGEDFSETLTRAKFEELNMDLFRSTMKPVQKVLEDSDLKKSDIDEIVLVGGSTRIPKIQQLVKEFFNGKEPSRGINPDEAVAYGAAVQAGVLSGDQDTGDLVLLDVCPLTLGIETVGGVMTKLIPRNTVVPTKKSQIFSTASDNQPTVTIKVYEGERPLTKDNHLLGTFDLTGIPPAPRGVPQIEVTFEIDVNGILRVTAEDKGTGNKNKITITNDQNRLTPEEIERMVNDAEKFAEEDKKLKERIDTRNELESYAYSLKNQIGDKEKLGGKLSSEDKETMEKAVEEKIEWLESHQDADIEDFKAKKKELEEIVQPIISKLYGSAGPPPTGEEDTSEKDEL
# Method: In vitro phage binding assays. GRP78, HSP70, HSP90 (all from Stressgen, Victoria, Canada) and bovine serum albumin (BSA) were immobilized on microtiter wells of 96-well plates overnight at 4° C. Wells were washed twice with phosphate-buffered saline (PBS), blocked with PBS containing 3% BSA for 1 hour at room temperature (RT), and incubated with 10⁹ transducing units (TU) of […] (SEQ ID NO:6)-phage, […] (SEQ ID NO:7)-phage, or insertless control phage (Fd-tet) in 50 μl of PBS containing 1.5% BSA. After 2 hours at RT, wells were washed with PBS, and bound phage were recovered by infection with host bacteria (log-phase Escherichia coli K91 kan; OD₆₀₀≈2). Aliquots of the bacterial culture were plated onto Luria-Bertani broth (LB) agar plates supplemented with 40 μg/ml tetracycline and 100 μg/ml kanamycin. Plates were incubated overnight at 37° C., and phage TU were counted in triplicate plates. Increasing concentrations of synthetic peptides […] (SEQ ID NO:6), […] (SEQ ID NO:7)-, and an unrelated control peptide CARAC (SEQ ID NO:9) (Genemed Synthesis Inc., San Francisco, Calif.) were used to evaluate competitive inhibition of phage binding. All peptides were solubilized in a standard stock solution of 10% dimethylsulfoxide (DMSO) and diluted to working concentrations for the assays.
# Peptide aptamers bind specifically to immobilized GRP78. […]
# [2] = target: T2, GRP78 of human prostate cancer cells (DU145 cell surface; human prostate cancer bone metastasis sections) (human, UniProt P11021 19-654); experiment: BRASIL aqueous-organic phase separation, phage on intact DU145 cells
# T2 construct: whole, on cells; Endogenous protein; used for the intact-cell (BRASIL) assay and for tissue section overlays; also called GRP78 expressed on the membrane of the prostate cancer cells
# T2 sequence (P11021 19-654): as the sequence (P07823 19-654) above, with F295Y, S631A counted along it
# Method: Cell-binding assays. Biopanning and Rapid Analysis of Selective Interactive Ligands (BRASIL) method was used to evaluate phage binding to intact cells. In brief, cultured human prostate cancer-derived DU 145 cells were detached with ethylenediaminetetraacetate (EDTA) and resuspended in Dulbecco's modified Eagle's medium (DMEM) containing 1% BSA at 4×10⁶ cells per ml. The cell suspension (50 μl) was incubated with 10⁹ of […] (SEQ ID NO:6)—phage, […] (SEQ ID NO:7)—phage, or insertless Fd-tet phage (negative control) at 4° C. in constant slow rotation. After 2 hours, the phage/cell mixture (aqueous phase) was gently transferred to the top of a non-miscible organic phase (200 μl solution in a 400 μl Eppendorf tube) consisting of dibutyl phtalate:cyclohexane (9:1 [v:v]; d=1.03 g ml⁻¹) and centrifuiged at 10,000 g for 10 minutes at 4° C. The tube was then snap frozen in liquid nitrogen, the bottom of the tube was sliced off, and the cell-phage pellet was isolated. Cell membrane bound phage were recovered by infection with the host bacteria.
# GRP78-binding phage clones bind specifically to prostate cancer cells. Having determined the binding specificity of aptamers to GRP78 in vitro, the binding of filamentous phage clones displaying […] […] (SEQ ID NO:7) (FIG. 5B) 580 to intact DU145 human prostate cancer cells by using an aqueous-organic phase separation was evaluated. […]
# [3] = target: T3, IL-11Rα of human prostate cancer cells (LNCaP, MDA-PCa-2b) and human prostate cancer tissue sections (human, UniProt Q14626 23-422); experiment: phage overlay on human prostate cancer tissue sections, compared with anti-IL-11Rα antibody staining
# T3 construct: whole, on cells; Endogenous receptor; used both for cell assays and for tissue section overlays; also called IL-11 receptor alpha; interleukin-11 receptor alpha
# T3 sequence (looked up): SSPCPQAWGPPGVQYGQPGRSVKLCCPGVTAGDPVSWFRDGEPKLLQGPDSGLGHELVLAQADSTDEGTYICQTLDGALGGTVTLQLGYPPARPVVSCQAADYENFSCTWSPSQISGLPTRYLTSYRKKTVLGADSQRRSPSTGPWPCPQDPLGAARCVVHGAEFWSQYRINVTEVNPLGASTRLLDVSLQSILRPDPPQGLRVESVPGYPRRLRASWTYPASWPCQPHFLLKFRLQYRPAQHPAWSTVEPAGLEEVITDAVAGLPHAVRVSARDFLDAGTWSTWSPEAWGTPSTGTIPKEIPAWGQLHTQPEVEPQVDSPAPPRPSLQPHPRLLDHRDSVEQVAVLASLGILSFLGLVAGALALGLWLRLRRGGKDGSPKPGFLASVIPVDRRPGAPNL
Binder,fold binding over negative control phage (fd-tet) [1] [fold],fold binding over control phage (fd-tet) [2] [fold],binding result [3]
B1,260,30,–
B2,–,–,binds
B3,870,30,–
